Patent US11202830B2, “Human immunodeficiency virus therapies utilizing N332-glycan-dependent antibodies in subjects with low viral loads” (priority 2013, dated 2021)

Columns and labels:
SHIV-SF162P3 [1] = assay: Antibody infusion in rhesus monkeys chronically infected with SHIV-SF162P3: plasma viral RNA; type: in vivo, rhesus monkeys (Macaca mulatta)
Excerpt: (§1) Groups were balanced for susceptible and resistant TRIM5α alleles (Lim et al., PLoS Pathog. 6: e1000738, 2010; Letvin et al., Sci Transl Med. 3: 81 ra36, 2011). Animals infected by the intrarectal route with our rhesus-derived SHIV-SF162P3 challenge stock for 9 months prior to antibody administration were utilized for the studies. […] 3BNC117 was manufactured by Celldex Therapeutics in CHO cells and purified by chromatography and sterile filtration. All the antibody preparations were endotoxin free. Cocktails of antibodies or single antibodies were administered to monkeys once or twice by the intravenous route at a dose of 10 mg/kg for each antibody. Monkeys were bled up to three times per week for viral loads. All animal studies were approved by the appropriate Institutional Animal Care and Use Committee (IACUC).
To evaluate the therapeutic potential of broad and potent HIV-1-specific antibodies in nonhuman primates, we infused cocktails of antibodies, as well as single antibodies, in chronically SHIV-infected rhesus monkeys.
We next investigated the therapeutic efficacy of a single infusion of the cocktail of three antibodies as well as a combination of only two antibodies. […] Viral rebound occurred in the majority of animals between day 28 and day 84 (FIGS. 2A and 2B) and was associated with declines of serum antibody titers to undetectable levels (FIGS. 2E and 2F).
It is generally believed that a combination of antibodies directed against multiple epitopes will be required for virologic control (Klein et al., Nature. 492: 118-122, 2012; Poignard et al., Immunity. 10: 431-438, 1999; Trkola et al., Nat Med. 11: 615-622, 2005; Diskin et al., J Exp Med. 210:1235-1249, 2013). However, the current extraordinarily potent and broad antibodies have not previously been evaluated in nonhuman primates with intact immune systems.

SHIV-SF162P3 [2] = assay: Sensitivity of SHIV-SF162P3 to 3BNC117; type: cell-based
[3] = tested on: SHIV-SF162P3 proviral DNA; assay: Proviral DNA assay (PBMC, lymph node, gastrointestinal mucosa) after antibody infusion; type: in vivo, rhesus monkeys (Macaca mulatta); conditions: day 14 after single infusion 10 mg/kg
Excerpt: as §1
Lymph node and gastrointestinal mucosal biopsies were processed as single cell suspensions essentially as previously described (Li et al., J Virol 85: 11007-11015, 2011). Tissue-specific proviral DNA was quantitated as previously reported (Whitney et al., J Virol. 83: 10840-10843, 2009). Total cellular DNA was isolated from 5×10^6 cells using a QIAamp DNA Blood Mini kit (Qiagen). The absolute quantification of viral DNA in each sample was determined by qPCR using primers specific to a conserved region SIVmac239. All samples were directly compared to a linear virus standard and the simultaneous amplification of a fragment of human GAPDH gene. The sensitivity of linear standards was compared against the 3D8 cell line as a reference standard as described (Whitney et al., J Virol. 83: 10840-10843, 2009). All PCR assays were performed with 100 and 200 ng of sample DNA.

clade C viruses = conditions: cited from earlier work

Molecule	transient reduction of plasma viral loads (SHIV-SF162P3 [1]; single infusion 10 mg/kg)	sensitivity of the SHIV-SF162P3 challenge stock (SHIV-SF162P3 [2]; applicant's rhesus-derived challenge stock)	sensitivity of the cloned SHIV-SF162P3 pseudovirus (SHIV-SF162P3 [2]; cloned pseudovirus)	no evidence of viral rebound for (SHIV-SF162P3 [1]; baseline <3.5 log RNA copies/ml, monkeys 4905 and DN1G)	time virtually undetectable viral RNA was maintained after treatment (SHIV-SF162P3 [1]; one infusion on day 0, n=3)	viral RNA after treatment (SHIV-SF162P3 [1]; one infusion on day 0, n=3)	virologic suppression compared to 10-1074, 3BNC117, or VRC07-523 (SHIV-SF162P3 [1]; one infusion on day 0, n=3)	animals with rapid virologic control to undetectable levels by day 7 (SHIV-SF162P3 [1]; single i.v. infusion day 0, 10 mg/kg of each antibody)	outcome in one animal (monkey DN1G) (SHIV-SF162P3 [1]; single infusion 10 mg/kg)	reduction of proviral DNA in lymph nodes vs DEN3 control ([3]; P=0.05) [fold]	reduction of proviral DNA in peripheral blood vs DEN3 control ([3]; P=0.05) [fold]	reduction of proviral DNA in gastrointestinal mucosa vs DEN3 control ([3]; P=0.1) [fold]	clade C viruses covered (clade C viruses)
3BNC117: CD4bs-specific antibody; light chain SEQ ID NO: 257, heavy chain SEQ ID NO: 258 (antibody, listed as Homo sapiens) heavy: QVQLLQSGAAVTKPGASVRVSCEASGYNIRDYFIHWWRQAPGQGLQWVGWINPKTGQPNNPRQFQGRVSLTRHASWDFDTFSFYMDLKALRSDDTAVYFCARQRSDYWDFDVWGSGTQVTVSS light: DIQMTQSPSSLSASVGDTVTITCQANGYLNWYQQRRGKAPKLLIYDGSKLERGVPSRFSGRRWGQEYNLTINNLQPEDIATYFCQVYEFVVPGTRLDLKRTVA	0.2-1.1 log	largely resistant	highly sensitive	–	–	–	–	–	–	–	–	–	–
PGT121: N332 glycan-dependent antibody; CDRs SEQ ID NO: 1-6, VH SEQ ID NO: 7, VL SEQ ID NO: 8 (antibody, V domains shown) VH: QMQLQESGPGLVKPSETLSLTCSVSGASISDSYWSWIRRSPGKGLEWIGYVHKSGDTNYSPSLKSRVNLSLDTSKNQVSLSLVAATAADSGKYYCARTLHGRRIYGIVAFNEWFTYFYMDVWGNGTQVTVSS VL: SDISVAPGETARISCGEKSLGSRAVQWYQHRAGQAPSLIIYNNQDRPSGIPERFSGSPDSPFGTTATLTITSVEAGDEADYYCHIWDSRVPTKWVFGGGTTLTVL	–	–	–	over 100 days	at least 15 days	virtually undetectable levels of viral RNA within days of treatment	extremely potent virologic suppression	4 of 4	long-term virologic control	4	6	4	approximately 70%
